Reference: patent US20240034786A1 (WUXI BIOLOGICS IRELAND, published 2024)
Changes are numbered by the printed parent chain. In names and notes the source's numbering stands.

B1: W3195-1.53.1-uIgG1L (antibody)
heavy: not shown
light: SYELTQPPSVSVSPGQTANITCSGDKLGDKFASWYQQKSGQSPVVVIYQDNKRPSGFPERFSGSNSGNTATLTISGTQAMDEADYYCQAWDSSIVVFGGGTKLTVLGQPKAAPSVTLFPPSSEELQANKATLVCLISDFYPGAVTVAWKADSSPVKAGVETTTPSKQSNNKYAASSYLSLTPEQWKSHRSYSCQVTHEGSTVEKTVAPTECS
notes: Fully human IgG1 from an OmniRat hybridoma, converted to human IgG1; also called parental antibody; parental mAb
B2: W3195-1.53.1-p3-uIgG1L (antibody)
heavy: not shown
light: B1 light with T21A
notes: also called W3195-p3 antibody
B3: W3195-1.53.1-p7-uIgG1LV320 (antibody, V domains shown)
VH: QVQLQESGPGLVKPSETLSLTCTVSGGSVISDNYYWTWVRQPPGKGLEFIGYIYYRGSTNYNPSLKNRVIISIDTSRNQFSLDLNSVTAADTAVYYCARDRRTGSSLPFDNWGQGTLVTVSS
VL: SYELTQPPSVSVSPGQTAQITCSGDKLGDKFASWYQQKSGQSPVVVIYQDNKRPSGFPERFSGSNSGNTATLTISGTQAMDEADYYCQAWDSSIVVFGGGTKLTVLG
notes: also called W3195-1.53.1-p7-uIgG1V320; W3195-p7-V320 antibody
B4: W3195-1.53.1-p6-uIgG1LV320 (antibody, V domains shown)
VH: B3 VH with S105T
VL: B3 VL
notes: also called W3195-1.53.1-p6-uIgG1V320; W3195-p6-V320 antibody
B5: W3195-1.53.1-p5-uIgG1LV320 (antibody, V domains shown)
VH: B3 VH with S105Q
VL: B3 VL
notes: also called W3195-1.53.1-p5-uIgG1V320; W3195-p5-V320 antibody
B6: W3195-1.53.1-p4-uIgG1LV320 (antibody, V domains shown)
VH: B3 VH with S105N, S106A
VL: B3 VL
notes: V320 = IgG1 Fc with L234A/L235A; also called W3195-1.53.1-p4-uIgG1V320; W3195-p4-V320 antibody

Key:
[1] = molecular target: T1, Human P-cadherin on cells (human, UniProt P22223 108-829); experiment: FACS on DU-145 cells
T1 construct: whole, on cells; Endogenous P-cadherin on tumour cell lines; also called hPro1
T1 sequence (P22223 108-829): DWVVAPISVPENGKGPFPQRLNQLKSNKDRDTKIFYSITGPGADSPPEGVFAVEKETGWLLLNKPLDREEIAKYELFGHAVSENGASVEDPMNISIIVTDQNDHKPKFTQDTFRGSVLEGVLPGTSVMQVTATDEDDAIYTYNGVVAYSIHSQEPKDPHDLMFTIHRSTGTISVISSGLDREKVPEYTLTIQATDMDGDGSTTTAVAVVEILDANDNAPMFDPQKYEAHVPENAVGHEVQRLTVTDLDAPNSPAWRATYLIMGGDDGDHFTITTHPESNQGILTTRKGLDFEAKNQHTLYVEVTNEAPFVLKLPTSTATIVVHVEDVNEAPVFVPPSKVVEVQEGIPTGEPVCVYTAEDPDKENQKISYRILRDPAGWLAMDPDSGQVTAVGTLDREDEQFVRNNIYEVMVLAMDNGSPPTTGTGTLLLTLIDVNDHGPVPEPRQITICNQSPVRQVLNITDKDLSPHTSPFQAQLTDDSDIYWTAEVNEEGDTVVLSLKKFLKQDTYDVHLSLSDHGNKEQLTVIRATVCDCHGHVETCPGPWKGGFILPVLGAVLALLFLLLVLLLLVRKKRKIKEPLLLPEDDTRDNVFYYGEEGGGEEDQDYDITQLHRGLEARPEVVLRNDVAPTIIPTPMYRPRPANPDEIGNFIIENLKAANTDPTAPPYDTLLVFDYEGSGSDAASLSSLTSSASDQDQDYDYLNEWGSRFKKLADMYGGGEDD
Method: (§1) Binding of the test antibodies to P-cadherin expressed on cells was determined by flow cytometry analysis. […] 1×10⁵ cells/well (100 μL) were added to each well of a 96-well U-plate (Corning, #3799) and centrifuged at 1500 rpm (Eppendorf, #5810R) for 5 minutes before removing the supernatant. Antibodies serially diluted in 1% BSA/1×PBS (Ca+/Mg+) were added at 100 μL/well to the pelleted cells and incubated at 4° C. for 1 hour. Anon-related hIgG1 antibody was used as an isotype control. Cells were washed two times with 180 μL/well of 1% BSA/1×PBS (Ca+/Mg+) by centrifugation at 1500 rpm for 5 minutes at 4° C. Pelleted cells were resuspended in 100 μL/well Alexa647 conjugated Goat anti-human IgG Fc (Jackson, #109-605-098) 1:500 diluted in 1% BSA/1×PBS (Ca+/Mg+) for 30 minutes at 4° C. in the dark. Cells were then washed two times as described above. After the final wash, cells were resuspended in 100 μL 1% BSA/1×PBS (Ca+/Mg+) and fluorescence values were measured with a FACS Canto II cytometer (BD Biosciences). The amount of cell surface bound anti-P-cadherin antibody was assessed by measuring the mean fluorescence (MFI). The FACS raw data were analyzed by FlowJo software, wells containing no antibody or secondary antibody only were used to establish background fluorescence. Binding EC50 values were obtained by the four-parameter non-linear regression analysis using GraphPad Prism6 software.

[2] = molecular target: T1, Human P-cadherin on cells; experiment: cell-based or functional assay
[3] = molecular target: T1, Human P-cadherin on cells; experiment: FACS on DU-145 cells; remark: listed apart in the source
Method: as §1

[4] = molecular target: T1, Human P-cadherin on cells; experiment: FACS on HCT-116 cells
Method: as §1
Binding of the antibodies to human P-cadherin expressed on cells was determined by flow cytometry analysis.

[5] = molecular target: T1, Human P-cadherin on cells; experiment: cell-based or functional assay; remark: listed apart in the source

EC50 [1] [nM]	Max MFI [1]	internalization, Fab-ZAP CTG assay on HCC-1954, IC50 [2] [nM]	EC50 [3] [nM]	Max MFI [3]	EC50 [4] [nM]	Max MFI [4]	internalization, Fab-ZAP on HCC-1954, IC50 [5] [nM]	internalization, Fab-ZAP on HCC-1954, Max Inh % [5] [%]	Binder
0.05	2090								B1
0.05	2140	0.02							B2
			0.09	2280	0.14	4230	0.059	79	B3
			0.1	2290	0.14	4180	0.063	79	B4
			0.12	2240	0.17	4170	0.058	82	B5
			0.12	2160	0.14	4190	0.063	80	B6
